The values that follow come from article PMC3303795, “Incorporation of Noncanonical Amino Acids into Rosetta and Use in Computational Protein-Peptide Interface Design” (PLoS ONE, 2012).

Assay [1] concerns the target T1, porcine calpain-1 (Sus scrofa, UniProt P04574).
T1 construct: GST (N, cleaved yes); made in house; host or cells: E. coli (pET41b vector)
T1 sequence (P04574 94-266 limits assumed): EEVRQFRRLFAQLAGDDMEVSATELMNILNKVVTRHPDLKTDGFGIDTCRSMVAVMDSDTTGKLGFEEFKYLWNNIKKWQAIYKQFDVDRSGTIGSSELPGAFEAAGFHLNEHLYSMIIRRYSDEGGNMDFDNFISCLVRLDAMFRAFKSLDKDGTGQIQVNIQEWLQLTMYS
Description: Fluorescence polarization binding assay of labelled calpastatin peptides with purified calpain. The conditions noted are these: calpain titrated into 500 nM labelled peptide; 50 mM NaP, 50 mM NaCl, 5 mM BME, 1 mM CaCl2, 1 mM EDTA, pH 8.0; room temperature; 3 polarization readings averaged per concentration; single state binding model; read-out: Experimental KD. On the procedure: Calpain was expressed as a GST-fusion protein in E. coli that had been transfected with a pet41b vector that contained the gene encoding porcine calpain-1. The cells were grown in Luria-Bertani broth with 50 ug/ml kanamycin at 37 degrees Celsius to an OD600 of 0.6 at which point 1 mM isopropyl β-D-1-thiogalactopyranoside (IPTG) was added to induce expression. Cells were grown for an additional 4 hours and harvested by centrifugation. Cells were resuspended in a buffer containing 50 mM NaPO4, 150 mM NaCl, 5 mM BME at pH 8.0 and lysed by sonication. Lysate was centrifuged at 12500 g for 30 minutes and the supernatant was run over a GSTrap-FF column that had been equilibrated with the lysis buffer. After loading, the column was washed with 10 column volumes of the lysis buffer before the GST-calpain was eluted with 50 mM Tris and 10 mM reduced glutithione, pH 8.0. The eluent was monitored by absorbance at 280 nm.5 mL fractions were collected. Those fractions which absorbed at 280 nm were pooled. Thrombin was added to separate the calpain from the GST and the cleavage reaction was allowed to cleave overnight at 4 Celsius. To remove the GST the protein was further purified with a Sephacryl S-200 gel filtration column using a buffer containing 50 mM NaPO4, 50 mM NaCl, 5 mM BME, 1 mM CaCl2, 1 mM EDTA at pH 8.0. The protein was concentrated through centrifugation via a spin column with a 15 K molecular weight cutoff and found to be pure and ran true to predicted size on SDS-PAGE gels.
Purified calpain was manually titrated in to a solution containing 500 nM calpastatin with 50 mM NaP, 50 mM NaCl, 5 mM BME, 1 mM CaCl2, 1 mM EDTA at pH 8.0, till the change in fluorescence polarization reached a plateau. Binding assays were performed at room temperature, 3 polarization readings were averaged for each concentration. Disassociation constants were calculated by fitting the data to a single state binding model using Sigma plot software.
On the technique in general: Polarisation of emitted light reports the rotation of a fluorescent probe.

Assay [2] concerns the target T2, calpastatin peptide Asp609 to 1-methyl-histidine (5FAM–βALA–…(1MH)FTS-amide).
T2 chain: PDDAIDALSDHFTS
Description: fluorescence polarisation; purified calpain manually titrated into 500 nM labelled calpastatin peptide; 50 mM NaP, 50 mM NaCl, 5 mM BME, 1 mM CaCl2, 1 mM EDTA, pH 8.0; room temperature; single state binding model.

The target in assay [3] is T3, calpastatin peptide Asp609 to homoserine (5FAM–βALA–…(HSE)–FTS-amide).
T3 chain: PDDAIDALSDXFTS
The description is as above.

Assay [4] concerns the target T4, calpastatin peptide Phe610 to 4-methyl-phenylalanine (FITC–βALA–…(4MF)TS-amide).
T4 chain: PDDAIDALSDDFTS
Described as above.

In assay [5] the target is T5, calpastatin peptide Ser607 to amino butyric acid (5FAM–βALA–PDDAIDAL(ABU)DDFTS-amide).
T5 chain: PDDAIDALXDDFTS
Described as above.

In assay [6] the target is T6, calpastatin peptide Ser607 to norvaline (5FAM–βALA–PDDAIDAL(NVL)DDFTS-amide).
T6 chain: PDDAIDALXDDFTS
Described as above.

Assay [7] addresses T7, wild type calpastatin subdomain C peptide, 5FAM-labelled (5FAM–βALA–…-amide).
T7 chain: PDDAIDALSDDFTS
The assay is described as above.

The target of assay [8] is T8, wild type calpastatin subdomain C peptide, FITC-labelled (FITC–βALA–…-amide).
T8 chain: PDDAIDALSDDFTS
The description is as above.

The target in assay [9] is T8, wild type calpastatin subdomain C …. Described as above.

Like-named read-outs stand apart in the source and are kept apart here. Where a SMILES comes first, the peptide text is derived from it. [ ]: non-standard residue; d: D form. The star is where a group is joined. 5FAM = O=C1OC2(c3ccc(O)cc3Oc3cc(O)ccc32)c2ccc(C(=O)*)cc21; hSer = N[C@@H](CCO)C(=O)O; Nva = CCC[C@H](N)C(=O)O; Abu = CC[C@H](N)C(=O)O; βAla = NCCC(=O)O

In general, Kd refers to the constant that tells how readily two partners part at equilibrium. For `CC[C@H](NC(=O)[C@H](CC(C)C)NC(=O)[C@H](C)NC(=O)[C@H](CC(=O)O)NC(=O)[C@@H](NC(=O)[C@H](C)NC(=O)[C@H](CC(=O)O)NC(=O)[C@H](CC(=O)O)NC(=O)[C@@H]1CCCN1C(=O)CCNC(=O)c1ccc2c(c1)C(=O)OC21c2ccc(O)cc2Oc2cc(O)ccc21)[C@@H](C)CC)C(=O)N[C@@H](CC(=O)O)C(=O)N[C@@H](CC(=O)O)C(=O)N[C@@H](Cc1ccccc1)C(=O)N[C@H](C(=O)N[C@@H](CO)C(N)=O)[C@@H](C)O` [ABU (5FAM)] ({5FAM-βAla}-PDDAIDAL[Abu]DDFTS-NH2), the dissociation constant Kd in assay [1] amounted to 5.8 ± 1.2 µM.

With `CC[C@H](C)[C@H](NC(=O)[C@H](C)NC(=O)[C@H](CC(=O)O)NC(=O)[C@H](CC(=O)O)NC(=O)[C@@H]1CCCN1C(=O)CCNC(=O)c1ccc2c(c1)C(=O)OC21c2ccc(O)cc2Oc2cc(O)ccc21)C(=O)N[C@@H](CC(=O)O)C(=O)N[C@@H](C)C(=O)N[C@@H](CC(C)C)C(=O)N[C@@H](CO)C(=O)N[C@@H](CC(=O)O)C(=O)N[C@@H](CC(=O)O)C(=O)N[C@@H](Cc1ccccc1)C(=O)N[C@H](C(=O)N[C@@H](CO)C(N)=O)[C@@H](C)O` [WT (5FAM), reference compound] ({5FAM-βAla}-PDDAIDALSDDFTS-NH2), the Kd in assay [1] is 6.6 ± 0.65 µM.

In the case of `CCC[C@H](NC(=O)[C@H](CC(C)C)NC(=O)[C@H](C)NC(=O)[C@H](CC(=O)O)NC(=O)[C@@H](NC(=O)[C@H](C)NC(=O)[C@H](CC(=O)O)NC(=O)[C@H](CC(=O)O)NC(=O)[C@@H]1CCCN1C(=O)CCNC(=O)c1ccc2c(c1)C(=O)OC21c2ccc(O)cc2Oc2cc(O)ccc21)[C@@H](C)CC)C(=O)N[C@@H](CC(=O)O)C(=O)N[C@@H](CC(=O)O)C(=O)N[C@@H](Cc1ccccc1)C(=O)N[C@H](C(=O)N[C@@H](CO)C(N)=O)[C@@H](C)O` [NVL (5FAM)] ({5FAM-βAla}-PDDAIDAL[Nva]DDFTS-NH2), the equilibrium dissociation constant (Kd) in assay [1] came out at 8.56 ± 0.95 µM.

For `CC[C@H](C)[C@H](NC(=O)[C@H](C)NC(=O)[C@H](CC(=O)O)NC(=O)[C@H](CC(=O)O)NC(=O)[C@@H]1CCCN1C(=O)CCNC(=O)c1ccc2c(c1)C(=O)OC21c2ccc(O)cc2Oc2cc(O)ccc21)C(=O)N[C@@H](CC(=O)O)C(=O)N[C@@H](C)C(=O)N[C@@H](CC(C)C)C(=O)N[C@@H](CO)C(=O)N[C@@H](CC(=O)O)C(=O)N[C@@H](CCO)C(=O)N[C@@H](Cc1ccccc1)C(=O)N[C@H](C(=O)N[C@@H](CO)C(N)=O)[C@@H](C)O` [HSE (5FAM)] ({5FAM-βAla}-PDDAIDALSD[hSer]FTS-NH2), the Kd in [1] was determined as 7.48 ± 0.68 µM.

B1: porcine calpain-1 (enzyme)
chain: EEVRQFRRLFAQLAGDDMEVSATELMNILNKVVTRHPDLKTDGFGIDTCRSMVAVMDSDTTGKLGFEEFKYLWNNIKKWQAIYKQFDVDRSGTIGSSELPGAFEAAGFHLNEHLYSMIIRRYSDEGGNMDFDNFISCLVRLDAMFRAFKSLDKDGTGQIQVNIQEWLQLTMYS
modifications: not checked
In the case of B1, the equilibrium dissociation constant (Kd) was determined as 5.81 µM in assay [2]; 7.48 µM in assay [3]; 2.6 µM in assay [4]; 5.8 µM in assay [5]; 8.56 µM in assay [6]; 6.6 µM in assay [7]. For the same molecule, the values for the Kd in assay [8] and in assay [9] were 5.77 µM and 5800 µM, respectively.
